Data taken from the DeepSol protein solubility set.

Assay: soluble on expression in E. coli; label from the status in PepcDB or PDB records

Sequence	soluble on expression in E. coli
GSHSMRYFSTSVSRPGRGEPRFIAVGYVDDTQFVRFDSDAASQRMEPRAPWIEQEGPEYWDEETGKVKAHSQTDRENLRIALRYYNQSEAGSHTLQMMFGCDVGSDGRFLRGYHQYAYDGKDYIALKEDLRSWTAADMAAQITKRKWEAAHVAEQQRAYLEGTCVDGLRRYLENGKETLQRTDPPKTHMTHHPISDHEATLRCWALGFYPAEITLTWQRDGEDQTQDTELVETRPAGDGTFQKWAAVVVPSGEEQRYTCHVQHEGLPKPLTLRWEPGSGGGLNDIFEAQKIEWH	soluble
MSLQFEGDTITYVGTGRPASDEIIDATGKVVMPGFINTHAHVGMSASKGLFDDVDLERFLDMTFKYDSQRTEEGIFNSARLGMYEMINSGITSFVDLYYSENVIARAAEQVGIRAFLSWVTLDREFTTQKGDPLDNAENFIRSHQNMRFVKPSVGVQGIYVASDETYQRAKEIAERYDTIMHMHLSETRKEVYDSVKKIGERPIEHLDKIGVLSSRVIAAHCVWATYHEAKLLGKNGVNVSWNAVSNFKLATGGVPPVPEMLDAGVNITIGTDSNGSNNSLNFFEAMKFSALTVKNARWDASIIKSQQILDFATIDAAKALRLNAGSIEVGKKADIVILDARRPELIPTDKNNVVNNIVYSTNPASVDSVIIDGVFRKKGGRLIGFDEGGVASANVFVEGHHHHHH	not soluble
MGSDKIHHHHHHMLHQLTVLFKDHLSTDPTVYCTDKYTVYQLADGLRFGIENTILTPRELDLLNLLVERVVTSESDQIVTWRRRLEQPSSEEAHPFRMIHFLFEQLDVRTGEDLQQLLTSFFHPSSWIIPLTSNRLVVIEREDSVSENDLHDFFTALQSDFLMDGKVLIGQQRQSGDLAAQFRLEQAALRELPLLHIERFLPALMRLTLLSNEVRDDLIERFITPLERESRETIDAFCRANLNVSLTAKHLFLHRNSLQYRLDRLTEQTEIDIRSFEGAMFLYTLLLVA	not soluble
MQIDNISDEQVVIVRMSCYLKKDEIFKNIERYGYQSSDIKKISPPFPLNILPVPKPYYFYLYDTHLNQIYDLAWSCNDFLMFEIFILDRESIKYIDKDKLFKSRETLYSNFKSIKNQCKNYFFCGFDFDAPYFKSGVSQVADYNFVPDAFSLFFI	not soluble
MGSDKIHHHHHHMKATSSFKGQTTGLYIVPTPIGNLEDMTYRAVRILQESDLVAAEDTRQTMKLFNHFKIETKLVSYHEHNKQVSGARLLADLHAGKQIALVSDAGMPGISDPGSDLIREAIAEDIPVIVLPGANAALTALVASGLATERFLYYGFLPRKKKERREALETVRYEKGSLIFYEAPHRLKEMLGALRDVLGDRQLTLARELTKRYEEYIRGSVTEALEWAEEEVRGEFVVIVEGSTEERPAEEEQKADPLQQIERYIEQGEKPNAALKRVAKERGLDRQELYLRYHES	not soluble
AFYYLSNFERALAWLAERYDDVLDAGEHAFVGAFGALPRASRALLVRMLMRKGPMFRASKLAYDEIGCPLAAAAPLVALGWIDPEPPLSLDALFALATKPELRDAFPDAPASGAVRKADWLDALRARHDGERPWAQWLPSIDDRVLRVTAAVDALCSRLRLMFFGNLHQDWSEFVLADLGLLQYETVAFAPSSRAFQRRDDVDAYLRLHACRELLEVWPADAPLAPLVEAAAAVDCGNAWLAMRRAKLTFSIGQACERRADWDGALAAYASSAWPGSRQRRVRVLERCERFDTALALADEAARAPENEAEAQQIARMLPRLRRRVGLPAGRAARAREIPRDSLELAHPGVPYPVEYVARDHLSRADAPVFYVENALINSLFGLLCWEPVFAAVPGAFFHPFQRGPADLHAPDFRARRAAQFDACLAQLDGTQYRDTIRRHYARKRGVQSPFVFWGALDETLLEHALACLPAEHLRLWFERLLDDVRGNRSGLPDLVRFWPAERRYELIEVKGPGDRLQDNQIRWLDYCVRHRMPVRVIDVRWSGDAQASSQDEGAL	not soluble
MPRILFTVPPFPVFIAAGEGVFKKGETHVKRVFSVFDLIYVKQGTLYITENETSFSVEGGEYILLSPGLEHYGTKGSDEATSYYWLHFDEHRYEFTAKGGSNWSELQQEKGSFEELARYGLALPRKGKVQRPQFMAQQFEKLIDYSAENSDLPLRKQILFEELMLHLQKEAFQIPSAKERVAWEAARYLQEHYKEKTTIKDLSLALHYHQDYVSRCMQQVLGVTPAQYTNRVRMTEAKRLLSSTNDKMGVIAETVGMEDPTYFSKLFKQIEGISPIEYRKIVSRKVQ	not soluble
MSLKYGHVAWIQQILDGSYADAMNTLKNITVDDSKKGESLSECELHLNVAKLSSLLVEKDNLDINTLRKIQYNLDTIDAEKNISNKLKKGEVQICKRFKNGSIREVFNILVEELKSTTVVNLSDLVELYSMLDDEESLFIPLRLLSVDGNLLNFEVKKFLNALVWRRIVLLNASNEGDKLLQHIVKRVFDEELPKNNDFPLPSVDLLCDKSLLTPEYISETYGRFPIDQNAIREEIYEEISQVETLNSEGHHHHHH	not soluble
AVYGIDAMNPSSRDDFTEFGKLLKDKITQYEKSLYYASFLEVLVRDVCISLEIDDLKKITNSLTVLCSEKQKQEKQSKAK	soluble
MGLNVREGEIMAKNRSRRLRKKMHIDEFQELGFSVAWRFPEGTSEEQIDKIVDDFINEVIEPNKLAFDGSGYLAWEGLICMQEIGKCTEEHQAIVRKWLEECKLDEVRTSELFDVWWD	not soluble
MSLLKKIERAQQLLKKEAAVFRCPTCHEPMHLEGVGLICQQRHQFDLSKKGTLYFLNHGVQTEYNKKMFTSRGKMIQSGMYAPVLNKIMHYLPQNKTVVDVGCGEGSFLAELSQAGLSGLKIGFDLSKEGIYLASNQPIDAFWCVADLTNLPFANEGLDTILNIFSPSHYQEFRRVLKADGTVIKIIPEENYLKELRAAFYPNDEKKQSYSNQKVVQRFAEELAVEVDERITYCFDIPEERRLDLLEMSPLEWQVSQEVKAELQQRPLEKITIDVRLLVGRKREGHHHHHH	soluble
MERVNERREQNNPNGCCLRDEDFSQFNSEAFLRELAADLNEDDTNDLSSSLFATSRIPEEHIRSTGLVERAEHYNKSVDQRTMTDARIAFEEEQLKNGKSPNAGTSGMENLADSGTHVPRRGRGDYFGKLRSFENGVSFPSRPPLTSEHSSSGDSYFNNSHKTTPNYRRFANSNDSSRDNSQMEYKAENDASHTSQSSNRFGFNSQINRTDIHPPAARHTFNPAAAYNGKITPDFRFNYIPNAAVPAPSVVPVIATHPGVAPPSIVPSPIRIGQRYPKRPDNMPKPSSEPKHLNHNYYQIELYGATQEDRIAQRIEKTVRQTEAPVRRF	not soluble
MPHMSEPQRLFFAIDLPAEIREQIIHWRATHFPPEAGRPVAADNLHLTLAFLGEVSAEKEKALSLLAGRIRQPGFTLTLDDAGQWLRSRVVWLGMRQPPRGLIQLANMLRSQAARSGCFQSNRPFHPHITLLRDASEAVTIPPPGFNWSYAVTEFTLYASSFARGRTRYTPLKRWALTQ	not soluble
EVQLVQSGAEVKKPGSSVKVSCKASGGTFSNYAINWVRQAPGQGLEWMGGIIPIFNIAHYAQRFQGRVSITADESTSTAYMELSSLRSEDTAVFYCASPYPNDYNDYAPEEGMSWYFDLWGRGTLVTVSPASTKGPSVFPLAPSSKSTSGGTAALGCLVKDYFPEPVTVSWNSGALTSGVHTFPAVLQSSGLYSLSSVVTVPSSSLGTQTYICNVNHKPSNTKVDKKVEPK	soluble
MEELTIWEQHTATLYKDPRRGFGIAVSGGHDRASGSVVVSDVVPGGPAEGRLRTGDHIVMVNGVSVENVTSAFAIQILKTCTKTANVTVKRPRRVQLPATKASPASGHQLSDQEEADHGRGYEGDSSSGSGRSWGERSRRSRAGRRGRVGSHGRRSSGGGSEANGLDLVSGYKRLPKQDVLMRPLKSVLVKRRNSEEFGVKLGSQIFIKHITESGLAARNHGLQEGDLILQINGVSSANLSLSDTRRLIEKSEGELTLLVLRDSGQFLVNIPPAVSDSDSSLMEDISDLTSELSQAPPSHVPPPPLKGQRSPEDSQTDSPVETPQPRRRERSVNSRAIAEPESPGESRYDIYRVPSRQSLEDRGYSPDTRVVSFPKGASIGLRLAGGNDVGIFVSGVQAGSPADGQGIQEGDEILQVNGMPFRNLTREEAVQFLLGLPPGEDMELVTQSKQDIFKKMVQSRVGDSFYIRTHFELEPSPPYGLGFTRGDVFHVVDTLYPGSGPGHGHSSHGGLWLAARMGRDLREQERGVIPNQSRAEQLASLEAAQRAAGVGPGASVGSNPRAEFWRLRGLRRGTKKASTQRSREDLSALTRQGHYPPYERVVLREASFKRPVVILGPVADIAMKKLTTEMPEEFEIAESMSRTDSPSKIIKLDTVRVIAERDKHALLDVTPSAIERLNYVQYYPIVIFCAPESRPALKALREWLAPASRRSSRRLYAQAQKLQKHSGHLFTATIPLHGTSDSWYQEVKAVIQQQQARPIWTAEDQLNSSSEDLDLPGHGLAASSGDLSCDSRTNSDYEDTDGEGAYTDREGGPQDVDEEVAPTALARSSEPVWVDDHQGLMGHGTTITDKWETQADSHYTQDQRRQDSMRTYKHEALRKKFTRARDVESSDDEGYDWGPATDL	soluble
GSHMSHLDNTMAIRLLPLPVRAQLCAHLDALDVWQQLATAVKLYPDQVEQISSQKQRGRSASNEFLNIWGGQYNHTVQTLFALFKKLKLHNAMRLIKDYVSEDLHKYI	soluble
MSWQQRVDDALTARRVTDTLRRRYVVSQGAGRWLVANGRQYLNFSSNDYLGLSQHPQIIRAWQQAATRFGVGSGGSGHISGYSVAHQALEEELAQWLGYPRALLFISGFAANQAVITALMKKNDRIVADRLSHASLLEAANLSPAQLRRFIHNDTQHLSRLLQSPCVGQQLVVTEGVYSMDGDSAPLAEIQHIARRHHAWLLVDDAHGIGVTGDEGRGTCWLRGVKPELLVVTFGKGFGVSGAAVLCSESVADYLLQFARHLVYSTSMPPAQAQALSASLAVIRSDEGGERREKLAALVQRFRAGVNASRFTLLNAHSAIQPLIVGDNSRALRLAEALRQQGCWATAIRPPTVPVGTARLRLTLTQAHEACDIDRLLEVLHGAGE	not soluble
